In the supplement of paper PMC7125110:
± gives the standard error. For part of these data: Fewer inactive variants are shown than the library holds.

B1: glmS ribozyme (parent)
chain: AUAAAAGCGCCAGAACUACAGAAAUGUAGUUGACGAGGAGGAGGUUUAUCGAAUUUUCGGCGGAUGCCUCCAAA

Key:
Details in all cases: with glucosamine-6-phosphate
glucosamine-6-phosphate [1] = variants of: B1; assay: kcat; higher = faster cleavage; RNA array
Procedure, shortened: (§1)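 Glucosamine-6-phosphate (40 μM to 10 mM) in HEPES/KCl/Mg(OAc)2 buffer was flowed over sequenced MiSeq chips, and tiles were imaged over ~14 h. Barcoded ribozyme variants there had been transcribed in situ by E. coli RNA polymerase and were tracked through a hybridised Cy3 probe at 37 °C. One- or two-exponential decay fits to per-tile medians, normalised to baseline and to non-cleaving reference variants, gave kobs. kcat and KM came from weighted Michaelis–Menten fits across concentrations.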

glucosamine-6-phosphate [2] = variants of: B1; assay: KM; higher = weaker cofactor use; RNA array
Procedure, shortened: as §1

glucosamine-6-phosphate [3] = variants of: B1; assay: self-cleavage kobs at 640 uM GlcN6P; higher = faster cleavage; RNA array
Procedure, shortened: as §1

glucosamine-6-phosphate [4] = variants of: B1; assay: self-cleavage kobs at 2500 uM GlcN6P; higher = faster cleavage; RNA array
Procedure, shortened: as §1

glucosamine-6-phosphate [5] = variants of: B1; assay: self-cleavage kobs at 10000 uM GlcN6P; higher = faster cleavage; RNA array
Procedure, shortened: as §1

glucosamine-6-phosphate [6] = variants of: B1; assay: self-cleavage kobs at 40 uM GlcN6P; higher = faster cleavage; RNA array
Procedure, shortened: as §1

glucosamine-6-phosphate [7] = variants of: B1; assay: self-cleavage kobs at 160 uM GlcN6P; higher = faster cleavage; RNA array
Procedure, shortened: as §1

Row | Variant | kcat (glucosamine-6-phosphate [1]) [s⁻¹] | KM (glucosamine-6-phosphate [2]) [µM] | self-cleavage kobs at 640 uM GlcN6P (glucosamine-6-phosphate [3]) [s⁻¹] | self-cleavage kobs at 2500 uM GlcN6P (glucosamine-6-phosphate [4]) [s⁻¹] | self-cleavage kobs at 10000 uM GlcN6P (glucosamine-6-phosphate [5]) [s⁻¹] | self-cleavage kobs at 40 uM GlcN6P (glucosamine-6-phosphate [6]) [s⁻¹] | self-cleavage kobs at 160 uM GlcN6P (glucosamine-6-phosphate [7]) [s⁻¹]
1 | G40A A48U | 0.000176 ± 1.7e-05 | 2780 ± 590 | 2.83e-05 ± 8.5e-06 | 9.03e-05 ± 1.2e-05 | 0.000133 ± 1.7e-05 | – | –
2 | A39U G40C | 0.00382 ± 0.00081 | 1850 ± 560 | 0.00089 ± 0.0001 | 0.00244 ± 0.00039 | 0.00324 ± 0.00043 | 0.00011 ± 1.5e-05 | 0.000253 ± 4.7e-05
3 | A39U G40U | 0.00237 ± 0.00036 | 997 ± 220 | 0.00112 ± 0.00016 | 0.00163 ± 0.00025 | 0.00209 ± 0.00044 | 9.94e-05 ± 1.5e-05 | 0.000285 ± 4.1e-05
4 | G37C C68U | 1.59e-05 ± 1.1e-06 | – | – | – | – | < 1e-05 | –
5 | G40A U46A | 0.00064 ± 0.00019 | – | 0.000254 ± 5.4e-05 | 0.000422 ± 9.6e-05 | 0.000495 ± 9.6e-05 | – | –
6 | A42U U55A | 0.000213 ± 6.1e-06 | 1260 ± 86 | 7.19e-05 ± 1.1e-05 | 0.000143 ± 2.6e-05 | 0.000188 ± 2.2e-05 | – | –
7 | G38A C70G | 1.82e-05 ± 1.9e-06 | – | – | – | – | – | –
8 | G37A U47G U55G | 0.000459 ± 0.00013 | – | 0.000101 ± 1.6e-05 | 0.000183 ± 2.9e-05 | 0.000412 ± 6.3e-05 | – | –
9 | G40A C70U | 0.000518 ± 0.0001 | 165 ± 58 | – | 0.000417 ± 0.00011 | 0.000752 ± 0.00019 | 0.000102 ± 1.8e-05 | –
10 | A36C U65G C70U | 1.94e-05 ± 5.3e-06 | – | – | – | – | – | –
11 | A39G A64U | 0.000215 ± 3.3e-05 | 3440 ± 950 | 3.77e-05 ± 1.6e-05 | 8.33e-05 ± 2.5e-05 | 0.000168 ± 5.5e-05 | < 1e-05 | –
12 | A39G A64C | 0.000357 ± 5.4e-05 | 2860 ± 950 | 5.91e-05 ± 2.4e-05 | 0.000202 ± 5.3e-05 | 0.000267 ± 5.3e-05 | – | –
13 | G40U C71U | 0.00842 ± 0.0008 | 1490 ± 200 | 0.00248 ± 0.00024 | 0.00464 ± 0.0005 | 0.00794 ± 0.00065 | 0.000232 ± 1.6e-05 | 0.000742 ± 0.00011
14 | G37A U45G | 0.00169 ± 0.00018 | 2870 ± 530 | 0.000349 ± 6.9e-05 | 0.000738 ± 0.00016 | 0.00132 ± 0.00019 | – | 8.96e-05 ± 3.2e-05
15 | G37U A64C | < 1e-05 | – | – | – | – | < 1e-05 | –
16 | G38A A52C | 1.04e-05 ± 2.3e-07 | 129 ± 16 | < 1e-05 | – | < 1e-05 | – | –
17 | G40A C58U | 4.57e-05 ± 1.8e-05 | – | – | – | – | – | –
